Laboratory results as given in publication PMC10075959 (Science Advances, 2023).
Where two headings read alike, the source gives them in different places.

Columns and labels:
[1] = biological target: the molecule itself; assay: AUC + other: circular dichroism
[2] = biological target: the molecule itself; assay: AUC
[3] = biological target: the molecule itself; assay: AUC + other: circular dichroism; remark: listed apart in the source

| Protein | Kd [1] [µM] | stoichiometry N [2] | Kd [3] [µM] |
| --- | --- | --- | --- |
| RQPASTVKPDMAEEIAALVLAKLGKDAGQPKQV (also called murine hepatitis virus) [MHV nucleocapsid LRS peptide 223-255] | 800 | – | – |
| MAGNGGDAALALLLLDRLNQLESKMSGKGQQQQGQTV [SARS-CoV-2 N-protein leucine-rich sequence peptide N:210-246 (NLRS)] | – | 3 | 810 |
| TRSDSNQSSSDLVAAVTLALKNLGFDNQSKSPSSSGT (also called human coronavirus NL63) [NL63 nucleocapsid LRS peptide 174-210] | 140 | – | – |
| MERS nucleocapsid LRS peptide 197-238 (peptide) peptide: not shown | 110 | – | – |
| MASGGGETALALLLLDRLNQLESKVSGKGQQQ [SARS-CoV-1 nucleocapsid LRS peptide 211-242] | 500 | – | – |
| 229E-related bat coronavirus nucleocapsid LRS peptide 170-221 (peptide) peptide: NERLPKSNSKQSNQDDIMAAVAAALEKLGFERPNDASQPQKKQNKGTPKPSR | 290 | – | – |
